Source: US12099068B2, “Biomarkers for graft-versus-host disease” (Incyte Corporation, priority 2018, dated 2024)

Tested on: plasma proteins
Experiment: Plasma proteins modulated between baseline and day 28 in responders (CR, VGPR, PR; n = 19), Example 6 (Table 13)
Assay type: in vivo, human
Settings: plasma protein (OLINK NPX); responders (CR, VGPR, PR; n = 19); itacitinib 200 mg or 300 mg QD with corticosteroids; day 28 vs baseline
In short: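 Plasma at baseline/screening and day 28 profiled for >1000 proteins by OLINK proximity extension assay, reported as NPX (log2). Steroid-naive and steroid-refractory patients pooled. Paired and unpaired t tests, ANOVA and Pearson correlation applied; significance at P<0.05.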

Molecule | Fold Change, Decreased Expression from Baseline to Day 28 | Fold Change, Increased Expression from Baseline to Day 28
NUB1 (protein, UniProt Q9Y5A7 1-615, looked up) NEDD8 ultimate buster 1: MAQKKYLQAKLTQFLREDRIQLWKPPYTDENKKVGLALKDLAKQYSDRLECCENEVEKVIEEIRCKAIERGTGNDNYRTTGIATIEVFLPPRLKKDRKNLLETRLHITGRELRSKIAETFGLQENYIKIVINKKQLQLGKTLEEQGVAHNVKAMVLELKQSEEDARKNFQLEEEEQNEAKLKEKQIQRTKRGLEILAKRAAETVVDPEMTPYLDIANQTGRSIRIPPSERKALMLAMGYHEKGRAFLKRKEYGIALPCLLDADKYFCECCRELLDTVDNYAVLQLDIVWCYFRLEQLECLDDAEKKLNLAQKCFKNCYGENHQRLVHIKGNCGKEKVLFLRLYLLQGIRNYHSGNDVEAYEYLNKARQLFKELYIDPSKVDNLLQLGFTAQEARLGLRACDGNVDHAATHITNRREELAQIRKEEKEKKRRRLENIRFLKGMGYSTHAAQQVLHAASGNLDEALKILLSNPQMWWLNDSNPETDNRQESPSQENIDRLVYMGFDALVAEAALRVFRGNVQLAAQTLAHNGGSLPPELPLSPEDSLSPPATSPSDSAGTSSASTDEDMETEAVNEILEDIPEHEEDYLDSTLEDEEIIIAEYLSYVENRKSATKKN | −1.4966 | –
TIGAR (protein, UniProt Q9NQ88 1-270, looked up) Fructose-2,6-bisphosphatase …: MARFALTVVRHGETRFNKEKIIQGQGVDEPLSETGFKQAAAAGIFLNNVKFTHAFSSDLMRTKQTMHGILERSKFCKDMTVKYDSRLRERKYGVVEGKALSELRAMAKAAREECPVFTPPGGETLDQVKMRGIDFFEFLCQLILKEADQKEQFSQGSPSNCLETSLAEIFPLGKNHSSKVNSDSGIPGLAASVLVVSHGAYMRSLFDYFLTDLKCSLPATLSRSELMSVTPNTGMSLFIINFEEGREVKPTVQCICMNLQDHLNGLTETR | −1.3733 | –
AGR2 (protein, UniProt O95994 21-175, looked up) Anterior gradient protein 2 …: RDTTVKPGAKKDTKDSRPKLPQTLSRGWGDQLIWTQTYEEALYKSKTSNKPLMIIHHLDECPHSQALKKVFAENKEIQKLAEQFVLLNLVYETTDKHLSPDGQYVPRIMFVDPSLTVRADITGRYSNRLYAYEPADTALLLDNMKKALKLLKTEL | – | 1.4472
STAMPB (protein, UniProt O95630 1-424, looked up) STAM-binding protein: MSDHGDVSLPPEDRVRALSQLGSAVEVNEDIPPRRYFRSGVEIIRMASIYSEEGNIEHAFILYNKYITLFIEKLPKHRDYKSAVIPEKKDTVKKLKEIAFPKAEELKAELLKRYTKEYTEYNEEKKKEAEELARNMAIQQELEKEKQRVAQQKQQQLEQEQFHAFEEMIRNQELEKERLKIVQEFGKVDPGLGGPLVPDLEKPSLDVFPTLTVSSIQPSDCHTTVRPAKPPVVDRSLKPGALSNSESIPTIDGLRHVVVPGRLCPQFLQLASANTARGVETCGILCGKLMRNEFTITHVLIPKQSAGSDYCNTENEEELFLIQDQQGLITLGWIHTHPTQTAFLSSVDLHTHCSYQMMLPESVAIVCSPKFQETGFFKLTDHGLEEISSCRQKGFHPHSKDPPLFCSCSHVTVVDRAVTITDLR | −1.3721 | –
LAT2 (protein, UniProt Q9GZY6 1-243, looked up) Linker for activation of …: MSSGTELLWPGAALLVLLGVAASLCVRCSRPGAKRSEKIYQQRSLREDQQSFTGSRTYSLVGQAWPGPLADMAPTRKDKLLQFYPSLEDPASSRYQNFSKGSRHGSEEAYIDPIAMEYYNWGRFSKPPEDDDANSYENVLICKQKTTETGAQQEGIGGLCRGDLSLSLALKTGPTSGLCPSASPEEDEESEDYQNSASIHQWRESRKVMGQLQREASPGPVGSPDEEDGEPDYVNGEVAATEA | −1.7755 | –
